Experimental data: the Human Domainome abundance scans (Beltran et al. 2025)
± gives the uncertainty stated by the source.

B1: Endonuclease CUE2, residues 9 to 47; numbered along this chain, P36075 (parent)
chain: HESKLSILMDMFPAISKSKLQVHLLENNNDLDLTIGLLL

Variants of: B1
Experiment: abundance fitness (aPCA) (normalised: wild type 0, dead -1); higher = more abundant; growth selection in yeast, the domain comes from the species named
Conditions: Saccharomyces cerevisiae (strain ATCC 204508 / S288c)
HESKLSILMGMFPAISKSKLQVHLLENNNDLDLTIGLLL [D10G] gave an abundance fitness of -0.099 ± 0.032. In the case of HESKLSILMIMFPAISKSKLQVHLLENNNDLDLTIGLLL [D10I], the abundance fitness is reported as -0.12 ± 0.067. In the case of HESKLSILMFMFPAISKSKLQVHLLENNNDLDLTIGLLL [D10F], the abundance fitness is reported as -0.463 ± 0.18. Work on HESKLSILMKMFPAISKSKLQVHLLENNNDLDLTIGLLL [D10K] yielded an abundance fitness of -0.191 ± 0.048. HESKLSILMEMFPAISKSKLQVHLLENNNDLDLTIGLLL [D10E] showed an abundance fitness of 0.052 ± 0.038. In the case of HESKLSILMNMFPAISKSKLQVHLLENNNDLDLTIGLLL [D10N], the abundance fitness is reported as -0.086 ± 0.055. Variant HESKLSILMHMFPAISKSKLQVHLLENNNDLDLTIGLLL [D10H] has an abundance fitness of -0.145 ± 0.11. Variant HESKTSILMDMFPAISKSKLQVHLLENNNDLDLTIGLLL [L5T] has an abundance fitness of -0.338 ± 0.072. For HESKHSILMDMFPAISKSKLQVHLLENNNDLDLTIGLLL [L5H], the abundance fitness was -1 ± 0.19. In the case of HESKRSILMDMFPAISKSKLQVHLLENNNDLDLTIGLLL [L5R], the abundance fitness is reported as -0.906 ± 0.067. In the case of HESKCSILMDMFPAISKSKLQVHLLENNNDLDLTIGLLL [L5C], the abundance fitness is reported as -0.306 ± 0.066. Variant HESKPSILMDMFPAISKSKLQVHLLENNNDLDLTIGLLL [L5P] has an abundance fitness of -0.738 ± 0.18. With HESKWSILMDMFPAISKSKLQVHLLENNNDLDLTIGLLL [L5W] the abundance fitness was -0.779 ± 0.078. In the case of HESKASILMDMFPAISKSKLQVHLLENNNDLDLTIGLLL [L5A], the abundance fitness is reported as -0.708 ± 0.068. Work on HESKGSILMDMFPAISKSKLQVHLLENNNDLDLTIGLLL [L5G] yielded an abundance fitness of -0.817 ± 0.055. For HESKVSILMDMFPAISKSKLQVHLLENNNDLDLTIGLLL [L5V], the abundance fitness was -0.002 ± 0.037. HESKKSILMDMFPAISKSKLQVHLLENNNDLDLTIGLLL [L5K] showed an abundance fitness of -0.771 ± 0.27. Variant HESKMSILMDMFPAISKSKLQVHLLENNNDLDLTIGLLL [L5M] has an abundance fitness of -0.031 ± 0.065. HESKQSILMDMFPAISKSKLQVHLLENNNDLDLTIGLLL [L5Q] showed an abundance fitness of -0.775 ± 0.081. In the case of HESKDSILMDMFPAISKSKLQVHLLENNNDLDLTIGLLL [L5D], the abundance fitness is reported as -0.928 ± 0.25. For HESKSSILMDMFPAISKSKLQVHLLENNNDLDLTIGLLL [L5S], the abundance fitness was -0.856 ± 0.22. For HESKESILMDMFPAISKSKLQVHLLENNNDLDLTIGLLL [L5E], the abundance fitness was -0.683 ± 0.076. Work on HESKLSKLMDMFPAISKSKLQVHLLENNNDLDLTIGLLL [I7K] yielded an abundance fitness of 0.078 ± 0.096. Variant HESKLSSLMDMFPAISKSKLQVHLLENNNDLDLTIGLLL [I7S] has an abundance fitness of -0.114 ± 0.065. In the case of HESKLSELMDMFPAISKSKLQVHLLENNNDLDLTIGLLL [I7E], the abundance fitness is reported as -0.158 ± 0.065. Variant HESKLSGLMDMFPAISKSKLQVHLLENNNDLDLTIGLLL [I7G] has an abundance fitness of -0.544 ± 0.039. For HESKLSWLMDMFPAISKSKLQVHLLENNNDLDLTIGLLL [I7W], the abundance fitness was -0.406 ± 0.067. For HESKLSQLMDMFPAISKSKLQVHLLENNNDLDLTIGLLL [I7Q], the abundance fitness was 0.137 ± 0.072. With HESKLSALMDMFPAISKSKLQVHLLENNNDLDLTIGLLL [I7A] the abundance fitness was 0.071 ± 0.042. In the case of HESKLSPLMDMFPAISKSKLQVHLLENNNDLDLTIGLLL [I7P], the abundance fitness is reported as -0.633 ± 0.17. Variant HESKLSDLMDMFPAISKSKLQVHLLENNNDLDLTIGLLL [I7D] has an abundance fitness of 0.22 ± 0.28. Variant HESKLSTLMDMFPAISKSKLQVHLLENNNDLDLTIGLLL [I7T] has an abundance fitness of 0.059 ± 0.051. Work on HESKLSFLMDMFPAISKSKLQVHLLENNNDLDLTIGLLL [I7F] yielded an abundance fitness of -0.282 ± 0.076. For HESKLSCLMDMFPAISKSKLQVHLLENNNDLDLTIGLLL [I7C], the abundance fitness was 0.153 ± 0.26. HESKLSMLMDMFPAISKSKLQVHLLENNNDLDLTIGLLL [I7M] gave an abundance fitness of 0.058 ± 0.071. With HESKLSVLMDMFPAISKSKLQVHLLENNNDLDLTIGLLL [I7V] the abundance fitness was 0.095 ± 0.036. HESKLSILGDMFPAISKSKLQVHLLENNNDLDLTIGLLL [M9G] gave an abundance fitness of -0.011 ± 0.033. Variant HESKLSILDDMFPAISKSKLQVHLLENNNDLDLTIGLLL [M9D] has an abundance fitness of -0.255 ± 0.068. Work on HESKLSILPDMFPAISKSKLQVHLLENNNDLDLTIGLLL [M9P] yielded an abundance fitness of -1.14 ± 0.28. HESKLSILNDMFPAISKSKLQVHLLENNNDLDLTIGLLL [M9N] showed an abundance fitness of -0.402 ± 0.1. HESKLSILSDMFPAISKSKLQVHLLENNNDLDLTIGLLL [M9S] showed an abundance fitness of -0.011 ± 0.042. Work on HESKLSILEDMFPAISKSKLQVHLLENNNDLDLTIGLLL [M9E] yielded an abundance fitness of -0.03 ± 0.054. For HESKLSILKDMFPAISKSKLQVHLLENNNDLDLTIGLLL [M9K], the abundance fitness was -0.155 ± 0.083. Work on HESKLSILYDMFPAISKSKLQVHLLENNNDLDLTIGLLL [M9Y] yielded an abundance fitness of -0.057 ± 0.055. Work on HESKLSILQDMFPAISKSKLQVHLLENNNDLDLTIGLLL [M9Q] yielded an abundance fitness of -0.013 ± 0.07. In the case of HESKLSILTDMFPAISKSKLQVHLLENNNDLDLTIGLLL [M9T], the abundance fitness is reported as -0.054 ± 0.073. Work on HESKLSILLDMFPAISKSKLQVHLLENNNDLDLTIGLLL [M9L] yielded an abundance fitness of 0.107 ± 0.042. In the case of HESKLSILADMFPAISKSKLQVHLLENNNDLDLTIGLLL [M9A], the abundance fitness is reported as -0.042 ± 0.042. For HESKLSILRDMFPAISKSKLQVHLLENNNDLDLTIGLLL [M9R], the abundance fitness was -0.049 ± 0.032. In the case of HESKLSILCDMFPAISKSKLQVHLLENNNDLDLTIGLLL [M9C], the abundance fitness is reported as -0.159 ± 0.057. Variant HESKLSILVDMFPAISKSKLQVHLLENNNDLDLTIGLLL [M9V] has an abundance fitness of 0.014 ± 0.052. HESKLSILWDMFPAISKSKLQVHLLENNNDLDLTIGLLL [M9W] showed an abundance fitness of -0.28 ± 0.059. Variant HESKLEILMDMFPAISKSKLQVHLLENNNDLDLTIGLLL [S6E] has an abundance fitness of -0.107 ± 0.053. For HESKLQILMDMFPAISKSKLQVHLLENNNDLDLTIGLLL [S6Q], the abundance fitness was 0 ± 0.12. Variant HESKLWILMDMFPAISKSKLQVHLLENNNDLDLTIGLLL [S6W] has an abundance fitness of -0.443 ± 0.074. Work on HESKLHILMDMFPAISKSKLQVHLLENNNDLDLTIGLLL [S6H] yielded an abundance fitness of -0.38 ± 0.089. Variant HESKLAILMDMFPAISKSKLQVHLLENNNDLDLTIGLLL [S6A] has an abundance fitness of 0.041 ± 0.034. HESKLGILMDMFPAISKSKLQVHLLENNNDLDLTIGLLL [S6G] showed an abundance fitness of -0.073 ± 0.032. HESKLRILMDMFPAISKSKLQVHLLENNNDLDLTIGLLL [S6R] gave an abundance fitness of -0.027 ± 0.033. Work on HESKLMILMDMFPAISKSKLQVHLLENNNDLDLTIGLLL [S6M] yielded an abundance fitness of -0.221 ± 0.09. Work on HESKLYILMDMFPAISKSKLQVHLLENNNDLDLTIGLLL [S6Y] yielded an abundance fitness of 0.32 ± 0.45. HESKLPILMDMFPAISKSKLQVHLLENNNDLDLTIGLLL [S6P] gave an abundance fitness of -0.342 ± 0.072. In the case of HESKLLILMDMFPAISKSKLQVHLLENNNDLDLTIGLLL [S6L], the abundance fitness is reported as -0.098 ± 0.042. With HESKLTILMDMFPAISKSKLQVHLLENNNDLDLTIGLLL [S6T] the abundance fitness was -0.011 ± 0.045.
